Test results: the supplement of paper PMC12764529
± gives the half width of the 95% confidence interval.

test: folding stability dG unfold from trypsin proteolysis; higher = more stable
Method in brief: (§1)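 Bayesian fitting of sequencing counts gave K50 for each design. Unfolding free energy followed by setting this against a sequence-predicted unfolded-state K50 and a shared folded-state K50, either per protease or with trypsin and chymotrypsin combined. The designs, under 80 residues and lacking cysteine, were digested in a PA-tagged cDNA display format at 11 threefold-diluted protease concentrations and without protease, and only those with AlphaFold2 dimer inter-PAE above 15 were kept.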

| Sequence | folding stability dG unfold [kcal/mol] |
| --- | --- |
| SAGGPVIEVEKEYIPETGLVKVKVRDPSSDRELEIIAPSDLVDKIEKALENAPGTNSEAAVREALRDSAGGS [r8_484_TrMRF] | -0.935 ± 0.42 |
| SAGGSAGGSAGGKKVKVLTLTIELEVKDSNGKKYKVKATVTLIYDEKTKKLYLNISIEPSAGGSAGGSAGGS [r10_795_TrROS_Hall] | 3.95 ± 0.39 |
| SAGGSAGGSKLKPFPIKLPGDLSMTIVELPEDPRFIVTVWHPDGDKPIDSIEFEPDEFEANVGSAGGSAGGS [r20_190_TrMRF] | 0.285 ± 0.023 |
| SAMSPEEIRARARALLEEKYPDKPYTLLSVEVDPSTGRVTVTWESPTPEKTTVTTPLTVTFGADGSLRESAG [r14_183_JUSTAS] | 2.028 ± 0.012 |
| SAGGSAGGSAGDIDPEDDIFYLTVRLKDGVPFVLPVRYDDIPFIPPEFVEEATFHKPKDISAGGSAGGSAGG [r11_779_TrMRF] | 0.365 ± 0.096 |
| SAGGMKKVKALVVANPFDPNKYKVFVKAEEEEKVFEFDPNNPEKIIEELEKLLPEDYKLDEIVFESGASAGG [r13_519_TrMRF] | 0.752 ± 0.032 |
| SAGGAEELAKALADELRKLFPGEEIEVTVELVEVEVEPGQKVTLPDGSTVEVPPGAKVLVLKITVKPSAGGS [r16_357_TrROS_Hall] | 3.13 ± 0.16 |
| SAGGMTTVTTTFTMSSEELKKFLEEKFGREVTKEEIIELIPKEKKIDVSESPQPNGTVKYTITITIEKSAGG [r13_869_JUSTAS] | 1.99 ± 0.099 |
| SAGGSAGGDGLELKLTFTIPVTARSPLGGSYPVYLRLTLTYRLDDPRWELDLYALDPNGNWYPVSAGGSAGG [r6_393_TrMRF] | 3.66 ± 0.18 |
| SAGGSAGGSAGGKKVILIRGLTPEEIEALAKELEELFPDLKVTIERLPGEEGTLLITVDSAGGSAGGSAGGS [r10_852_TrROS_Hall] | 2.92 ± 0.17 |
| SAGGNWRIVEIPIKFPPGQDLTTIAKEIAKELLPPGEDVSINVEQRPNYMRIYIFYPEDGKPLWEIEISAGG [r13_724_TrROS] | 1.95 ± 0.054 |
| SAGGSAGGMTLLIRDPETNELVEVTVEEKDGKLTLTVRNKKTGETTEIEIPLDEEPIEIVLLEPSAGGSAGG [r6_465_TrROS_Hall] | 2.09 ± 0.12 |
| SAGGSAGGSAMIEISSYTLPNGELVVEVTIPDPNSDKTTTLRGKYSSLEEAREEAEKLYLQSAGGSAGGSAG [r3_174_JUSTAS] | 1.52 ± 0.051 |
| SAGGSAGGMIKYSEEAPDPSYRTEVEVTPVPGKVAIKTTTYRNENGVWTAEESTSVVSPEALLSSAGGSAGG [r6_778_JUSTAS] | -0.703 ± 0.19 |
| SAGGSAGGSAGSMTVTLTITDPRNSATTTYTVPSSNYEEFLKANPEIEKNGWTVTVDTNGSAGGSAGGSAGG [r17_176_JUSTAS] | 1.15 ± 0.044 |
| SAGGMKEIAKALGIKPEDVKIEEEEIEVNGKKVKKIKITVKDKKTKKEYKIELTIVYDKNGKIVKIELSAGG [r13_358_TrROS_Hall] | 3.61 ± 0.15 |
| SAGGSAGGSAGGSMKIEIVTNDPKKAEEIKEKLEKEGYPKKKNPINIEVKEISEEELLKSAGGSAGGSAGGS [r4_281_JUSTAS] | -0.113 ± 0.085 |
| SAGGSAPLPAREFADEIMKKSPGPVEITVVFKEPDEYYVAKITMNPNNGKPQIKVERIPPEDLKKLSAGGSA [r15_156_TrROS] | 0.42 ± 0.065 |
| SAGGSAGGMLVFVVKKIKPGMSDEQKKALEKLVKPGDVIELSPEEIERLAKLPWIQEIKVYPLPSAGGSAGG [r6_381_TrROS_Hall] | 0.641 ± 0.12 |
| GEVVERLKLPDLELVEVRTTTEGDTTFVYVKLKRPDSYYVVKLTVTPATGEVTVTEEKKVSPNETLEEVLAS [r1_383_JUSTAS] | 1.66 ± 0.12 |
| SAGKQEIKVEAVFPGDTLEEFMEFIREFLAEQGLKIEPTEFEIDKVQPMPGGPMIRVTAWIKIEPPDDSAGG [r19_325_TrROS] | 2.31 ± 0.11 |

test: folding stability dG unfold (combined trypsin and chymotrypsin); higher = more stable
Method in brief: as §1

| Sequence | folding stability dG unfold [kcal/mol] |
| --- | --- |
| SAGGSAPPKRRERIIQIPIKMKPGQTADEMVDNIADWIMDLLPPDMRIEIEVEYHPENGWIMVKIESAGGSA [r15_739_TrROS] | 1.63 ± 0.3 |
| SAGGSAGGSAGPVVVEVDGKLVIFNPEDGTVTVFEFDKDGKLVEEKEFTVPPEVTLVEEDSAGGSAGGSAGG [r17_385_TrROS_Hall] | 1.27 ± 0.13 |
| SMPLLVKVDTPEQREKLLKVLEEIEKETDIKIELVSEHPDGKYEFLIEAPLEEAVKIAKKLKEAGNVEIVSA [r9_472_TrMRF] | 3.7 ± 0.1 |
| SAGGSAGGSAGGGMIPVSTSETVVPGPSRLVRRTTTTYRDPVTGKLYTTSSTTVLPPAASAGGSAGGSAGGS [r10_190_JUSTAS] | 0.963 ± 0.045 |
| SAGGSAGGSAGGSMSSSSSPLPDEDGLVTRGKSSEPSPPFTWTTTVDSSGVPSTTVTSLESAGGSAGGSAGG [r7_187_JUSTAS] | 0.323 ± 0.07 |
| SAGGSAPNKWKTVDIEFMFPPDNLEEFVDEISKLPGIKASIEPVEYDPEGMYWMKIDITIPPGMKISAGGSA [r15_441_TrROS] | 1.64 ± 0.21 |
| SAGGSAGGSDWRPIKIWYPLDDLEQIKEKIREDGITVEINVQRDPNGKLYAPVTIWVPKGAKPSAGGSAGGS [r12_653_TrROS] | 1.32 ± 0.15 |
| SAGGSAGGMLPAEELADYLEKNPGIEIEDIEPPDPGYITVKIKFPRPDPNGEKHKVEVTIQFPVSAGGSAGG [r6_154_TrROS] | 1.4 ± 0.32 |
| SAGGSAGGSAGGGSSGVSYGSVPIVIRDPSGNVVSTLTLRVYPDGTVVLEFPDGSLLLLSAGGSAGGSAGGS [r10_972_JUSTAS] | 3.86 ± 0.087 |
| SAGGSAGGSMPTSSSSSLSSEAEVEALIEELKKKGAKEFTVDPGPGALTLTITYDDSTLTISSSAGGSAGGS [r12_846_JUSTAS] | 1.12 ± 0.11 |
| SAETRTLTIRIPAKDLTPEQIRALLRALLPEDATITEVRIERDEDGYITVTIVVTNPDGSKQEIRLVFPSAG [r14_30_TrROS_Hall] | 2.6 ± 0.085 |
| SAKMYLVIIEIKKDGKTYKLIIIIPEEDENLTEEEILEKIRELAEKLNLEIEKIEVIPLEEAKKLLEELSAG [r14_953_TrROS_Hall] | 5.23 ± 0.13 |
| SAGGSAGGSMKTITVTFSSEEEAKKAAEEILKKEGFDEKIKEVTLTYSKEGNVLTGTVTVKTPSAGGSAGGS [r12_7_JUSTAS] | 0.945 ± 0.089 |
| SAGGSAGGSAGHRSVMVTVDDIAKENGIKIPPGSYLMVTVEGNKVKDIMIQPMKPKPEDPSAGGSAGGSAGG [r11_616_TrROS] | -0.17 ± 0.18 |
| SMKPGEKLEIEVEIKVEEEDEEKRKKALEEAEEKLRELFEKLGLKDIKKVEVVEVEKLPDGTVKVKIRIDSA [r9_754_TrROS_Hall] | 1.71 ± 0.24 |
| SAGGSAGGMIYKFTYPKGEPPLLFTYDPSTGKVTVTEPKTGKPLGTVDLSLEEAVKAGARIEPVSAGGSAGG [r6_832_JUSTAS] | 0.84 ± 0.057 |
| SAGGSARYYFIVIEIWQPGKPVKFIIVVPKEDPKKFESEINEMFPGYNIDIKVIPFPSPEEAEDLFSAGGSA [r15_889_TrROS] | 2.74 ± 0.17 |
| SAGGKPGKWRKVEIWLPPDMPDIIEEIAKNWPNVNVDTERHPENGWYPVTGYFPDPNGKPVAKIHIWSAGGS [r8_267_TrROS] | 0.65 ± 0.2 |
| SAGKKKKKVKKKTVKLTITVKLKPGMTEEEALEKVKELAKALLPPGAKIKEVKFDKETKTVTVEIELTSAGG [r19_81_TrROS_Hall] | 2.25 ± 0.19 |
| SAGGKGPKKIILPLKFKIKTKPNEKKSKIKFKLSLKLFPKAKKVEVKSSIKPLKNNYALLDFDIVIEASAGG [r13_872_TrMRF] | 3.56 ± 0.45 |
| SAGGATPLPDGGYRLTYTVKLSPSESVEDAPKAAAALAEKYGVTPVAITVDPSTGTVTIDILLPPEVRSAGG [r13_178_JUSTAS] | 1.44 ± 0.095 |

| Sequence | folding stability dG unfold [kcal/mol] |
| --- | --- |
| SAGGPVIEVEKEYIPETGLVKVKVRDPSSDRELEIIAPSDLVDKIEKALENAPGTNSEAAVREALRDSAGGS [r8_484_TrMRF] | 0.402 ± 0.15 |
| SAGGSAGGSAGGKKVKVLTLTIELEVKDSNGKKYKVKATVTLIYDEKTKKLYLNISIEPSAGGSAGGSAGGS [r10_795_TrROS_Hall] | 4.85 ± 0.31 |
| SAGGSAGGSKLKPFPIKLPGDLSMTIVELPEDPRFIVTVWHPDGDKPIDSIEFEPDEFEANVGSAGGSAGGS [r20_190_TrMRF] | 0.591 ± 0.078 |
| SAMSPEEIRARARALLEEKYPDKPYTLLSVEVDPSTGRVTVTWESPTPEKTTVTTPLTVTFGADGSLRESAG [r14_183_JUSTAS] | 2.02 ± 0.029 |
| SAGGSAGGSAGDIDPEDDIFYLTVRLKDGVPFVLPVRYDDIPFIPPEFVEEATFHKPKDISAGGSAGGSAGG [r11_779_TrMRF] | 0.246 ± 0.083 |
| SAGGMKKVKALVVANPFDPNKYKVFVKAEEEEKVFEFDPNNPEKIIEELEKLLPEDYKLDEIVFESGASAGG [r13_519_TrMRF] | 1.74 ± 0.1 |
| SAGGAEELAKALADELRKLFPGEEIEVTVELVEVEVEPGQKVTLPDGSTVEVPPGAKVLVLKITVKPSAGGS [r16_357_TrROS_Hall] | 3.44 ± 0.14 |
| SAGGMTTVTTTFTMSSEELKKFLEEKFGREVTKEEIIELIPKEKKIDVSESPQPNGTVKYTITITIEKSAGG [r13_869_JUSTAS] | 2.44 ± 0.16 |
| SAGGSAGGDGLELKLTFTIPVTARSPLGGSYPVYLRLTLTYRLDDPRWELDLYALDPNGNWYPVSAGGSAGG [r6_393_TrMRF] | 4.84 ± 0.1 |
| SAGGSAGGSAGGKKVILIRGLTPEEIEALAKELEELFPDLKVTIERLPGEEGTLLITVDSAGGSAGGSAGGS [r10_852_TrROS_Hall] | 2.38 ± 0.14 |
| SAGGNWRIVEIPIKFPPGQDLTTIAKEIAKELLPPGEDVSINVEQRPNYMRIYIFYPEDGKPLWEIEISAGG [r13_724_TrROS] | 2.58 ± 0.075 |
| SAGGSAGGMTLLIRDPETNELVEVTVEEKDGKLTLTVRNKKTGETTEIEIPLDEEPIEIVLLEPSAGGSAGG [r6_465_TrROS_Hall] | 2.43 ± 0.12 |
| SAGGSAGGSAMIEISSYTLPNGELVVEVTIPDPNSDKTTTLRGKYSSLEEAREEAEKLYLQSAGGSAGGSAG [r3_174_JUSTAS] | 1.69 ± 0.12 |
| SAGGSAGGMIKYSEEAPDPSYRTEVEVTPVPGKVAIKTTTYRNENGVWTAEESTSVVSPEALLSSAGGSAGG [r6_778_JUSTAS] | 0.0979 ± 0.088 |
| SAGGSAGGSAGSMTVTLTITDPRNSATTTYTVPSSNYEEFLKANPEIEKNGWTVTVDTNGSAGGSAGGSAGG [r17_176_JUSTAS] | 1.05 ± 0.13 |
| SAGGMKEIAKALGIKPEDVKIEEEEIEVNGKKVKKIKITVKDKKTKKEYKIELTIVYDKNGKIVKIELSAGG [r13_358_TrROS_Hall] | 4.63 ± 0.57 |
| SAGGSAGGSAGGSMKIEIVTNDPKKAEEIKEKLEKEGYPKKKNPINIEVKEISEEELLKSAGGSAGGSAGGS [r4_281_JUSTAS] | 0.533 ± 0.16 |
| SAGGSAPLPAREFADEIMKKSPGPVEITVVFKEPDEYYVAKITMNPNNGKPQIKVERIPPEDLKKLSAGGSA [r15_156_TrROS] | 0.467 ± 0.23 |
| SAGGSAGGMLVFVVKKIKPGMSDEQKKALEKLVKPGDVIELSPEEIERLAKLPWIQEIKVYPLPSAGGSAGG [r6_381_TrROS_Hall] | 0.548 ± 0.2 |
| GEVVERLKLPDLELVEVRTTTEGDTTFVYVKLKRPDSYYVVKLTVTPATGEVTVTEEKKVSPNETLEEVLAS [r1_383_JUSTAS] | 2.36 ± 0.21 |
| SAGKQEIKVEAVFPGDTLEEFMEFIREFLAEQGLKIEPTEFEIDKVQPMPGGPMIRVTAWIKIEPPDDSAGG [r19_325_TrROS] | 2.8 ± 0.22 |
